PMC2837123

Biological target: PFV integrase (IN) (prototype foamy virus, UniProt P14350 752-1143)
Test: crystal structure

B1: pre-processed PFV U5 end (17/19 nt) (dsDNA)
DNA 1: TACAAAATTCCATGACA
DNA 2: ATTGTCATGGAATTTTGTA
- binding result: binds
